Legend:
Assay type in all cases: cell-based
[1] = tested on: CRISPR target m7GEP1 (maize HMG13 gene) in corn A188 immature embryos; assay: SDN-1 efficiency after co-delivery of TSA with editing plasmids, target m7GEP1, Taqman ddPCR (Example 18); details: 15 ng TSA co-bombarded, 48 hours after bombardment, 6 repeats
Description: (§1) The amounts of TSA used for a bombardment with 100 μg of gold particles (approximately, 4.0-5.0×10^7 gold particles size of 0.6 micron) is 15 ng. Specifically, the plasmid DNA and TSA were co-coated onto gold particles for bombardment as follows. For 10 shots, 100 microlite (μl) of 10 mg/ml 0.6 μm gold particle in 50% (v/v) glycerol particle stock solution (1.0 mg of the gold particles in total for 10 shots, and 100 μg per shot) was pipetted into a clear low-retention microcentrifuge tube. Sonicate for 15 seconds to suspend the gold particles. While vortex at a low speed, add the following in order: • 1.0 μg of pGEP1054 (FIG. 15), 1.5 μg of pGEP842 (FIG. 2) or pGEP1067 (FIG. 32) • 100 μl of 2.5 M CaCl2 (pre-cold on ice) • 40 μl of 0.1 M cold spermidine Close the lid and vortex the tube for 5 minutes at room temperature and spin down the DNA-coated gold particles. After washing in 1000 μl of 100% ethanol (pre-cold at −20° C.) for two times, the pellet was resuspended in 120 μl of 100% ethanol. Finally, 150 ng of TSA was added into the resuspended gold particle solution carefully. While vertexing at a low speed, pipet 10 μl of TSA co-coated gold particles with a wide open 20 μl tip from the tube onto the center of the macrocarrier evenly. Since the particles tend to form clumps at this point, get the gold particles onto the macrocarriers as soon as possible. […]

[2] = tested on: CRISPR target m7GEP22 (maize HMG13 gene) in corn A188 immature embryos; assay: SDN-1 efficiency after co-delivery of TSA with editing plasmids, target m7GEP22, Taqman ddPCR (Example 18); details: 15 ng TSA co-bombarded, 48 hours after bombardment, 6 repeats
Description: as §1

[3] = tested on: maize HMG13 gene in maize A188 immature embryos; assay: Genome editing SDN-1 in regenerated T0 plants of maize A188 (Example 5); details: for Total SDN-1: T0 events; for Bi-SDN-1: T0 events with bi-allelic SDN-1; for Mon-SDN-1: T0 events with mono-allelic SDN-1; for % SDN-1/IE: per immature embryo initially used; for % SDN-1/Event: per regenerated T0 event; for Total Events: regenerated T0 events, co-bombarded with pGEP837 and pGEP842
Description: Specifically, construct pGEP837 (SEQ ID NO: 52, FIG. 1) and the crRNA construct pGEP842 (SEQ ID NO: 53, FIG. 2) were co-bombarded with the different boosters as indicated into maize A188 immature embryos by particle bombardment. For each bombardment (shot), 100 ng of plasmid pGEP837 were cocoated with 150 ng of plasmid pGEP842 and 100 ng each of different boost constructs onto 100 μg of 0.4 μm gold particles using calcium-spermidine method. Three bombardments (shots) per sample plate were performed.
(§2) After bombardment the embryos were remained on the osmotic medium (N60SM) for another 16-20 hours. The embryos were transferred from the osmotic medium onto embryogenic callus induction medium (e.g. N6_5Ag) in a petri dish plate (100×25 mm) with scutellum-face-up, at a density of 12-15 embryos per plate. The embryos were incubated at 27° C. in dark for the embryogenic callus induction. After embryogenic callus induction in N6_5Ag medium for 10-14 days the induced calluses were transferred onto embryo maturation medium MRM1 in petro dish (100×25 mm), and cultured at 27° C. in dark for 10 days, and then at 25° C., weak light (20-50 μmol m^−2 s^−1) for 2-4 days. The mature somatic embryos were then transferred onto MSO medium (see below) in phytotray for plant outgrowth and further development for 5-7 days. A 5-10 mm leaf tip from each of the leaves of a T0 plant is collected for DNA extraction. The targeted genome editing SDN-1 in the regenerated T0 plants are screened by TaqMan real-time PCR (qPCR), and further conformed by Sanger sequencing trace decomposition analysis.

[4] = tested on: maize HMG13 gene in immature embryos of maize recalcitrant elite 4V-40290; assay: Genome editing SDN-1 in T0 plants of elite 4V-40290 (Example 13); details: for Bi-SDN-1 / Mon-SDN-1 / Total SDN-1: T0 events; for % SDN-1/IE: per immature embryo initially used; for % SDN-1/Event: per regenerated T0 event; for Total Event: regenerated T0 events, co-bombarded with pGEP837 and pGEP842
Description: as §2
(§3) The workflow was as described in Example 6. For immature embryo isolation, osmotic treatment, and bombardment, please see the description in Example 1. Specifically, genome editing constructs pGEP837 (SEQ ID NO: 52, FIG. 1) and pGEP842 (SEQ ID NO: 53, FIG. 2) were co-bombarded with the different boosters as indicated into the immature embryos of elite 4V-40290 by particle bombardment. For each bombardment (shot), 100 ng of plasmid pGEP837 and 150 ng of plasmid pGEP842 were cocoated with 100 ng each of different boost constructs onto 100 μg of 0.4 μm gold particles using calcium-spermidine method. Three bombardments (shots) per sample plate were performed. The bombarded embryos were transformed onto the embryogenic callus induction medium 16-20 hours after bombardment.
(§4) For plant regeneration, and genome editing SDN-1 screen and conformation in regenerated T0 plants please see Example 5 and Example 9.

[5] = tested on: maize HMG13 gene in immature embryos of maize recalcitrant elite 2V-20195; assay: Genome editing SDN-1 in T0 plants of elite 2V-20195 (Example 12)
Description: as §2
as §3, with “embryos of maize elite 2V-20195” for “embryos of elite 4V-40290”, “maize elite 2V-20195 by particle” for “of elite 4V-40290 by particle”, “pGEP842 were co-coated with 100” for “pGEP842 were cocoated with 100”
as §4

Molecule	increase in the SDN-1 efficiency compared to the control without TSA (CK) [1] [%]	increase in the SDN-1 efficiency compared to the control without TSA (CK) [2] [%]	Total SDN-1 [3]	Bi-SDN-1 [3]	Mon-SDN-1 [3]	% SDN-1/IE [3] [%]	% SDN-1/Event [3] [%]	Total Events [3]	Bi-SDN-1 [4]	Mon-SDN-1 [4]	Total SDN-1 [4]	% SDN-1/IE [4] [%]	% SDN-1/Event [4] [%]	Total Event [4]	Bi-SDN-1 ([5]; T0 events)	Mon-SDN-1 ([5]; T0 events)	Total SDN-1 ([5]; T0 events)	% SDN-1/IE ([5]; per immature embryo initially used) [%]	% SDN-1/Event ([5]; per regenerated T0 event) [%]	Total Event ([5]; regenerated T0 events, co-bombarded with pGEP837 and pGEP842)
CC(/C=C/C(=O)NO)=C\[C@@H](C)C(=O)c1ccc(N(C)C)cc1 [TSA, trichostatin A]	61.5	354.5																		
RBP8: artificial regeneration booster protein, SEQ ID NO: 39 (CDS SEQ ID NO: 27), construct pABM-BdEF1_RBP8 (protein) MVSKGEEVIKEFSGSTRWNPTAEQVKVLREIYYRAGLRTPSADQIRQISSQLKRYGKVEGKNVFYWFQNHKARERQKKRLSTVGSAGSAAGSGEFRHVKTLPLFPLHNNEDSGSGLDLDLNLELRLSATAAATSGSQRASALDLDLELRLGFALGNESCGLHDN			9	5	4	39.1	13.4	67	1	6	7	28.0	20.6	34						
RBP5: artificial regeneration booster protein, SEQ ID NO: 36 (CDS SEQ ID NO: 24), construct pABM-BdEF1_RBP5 (protein) MVSKGEEVIKEFSGSTRWNPTAEQLSLLKELYYRNGIRTPSADQIRQISARLSRYGKIEGKNVFYWFQNHKARERQKKRLSTVGCGSAGSAAGSGEFRHVKTLPLFPLHNNVETLPLFPEDSGSLDLELELGFASATAAATSGSQRASALDLCLSLGNESCGLHDN			11	8	3	23.4	4.9	224												
RBP7: artificial regeneration booster protein, SEQ ID NO: 38 (CDS SEQ ID NO: 26), construct pABM-BdEF1_RBP7 (protein) MVSKGEEVIKEFSGSTRWNPTAEQLSLLKELYYRNGIRTPSADQIRQISARLSRYGKIEGKNVFYWFQNHKARERQKKRLSTVGCDPALIEMGNVASLEFGTESALESLSSGPSSELREAPTRKFYEKKTVGENSTIINPVEQNCTLSCGTSQEFQYAVDSRRVMKAMEEKQATDDEPDGNKWTESNRHVKTLPLFPLHNNVETLPLFPEDSGSLDLELELGFASGGSAGSVDTLPLFPREAAGSGEFATAAATSGSQRASALDLCLSLGNESCGLHDN			6	5	1	19.4	12.0	50												
RBP2: artificial regeneration booster protein, SEQ ID NO: 33 (CDS SEQ ID NO: 21), expressed from construct pABM-BdEF1_RBP2 (protein) MESGSGTAAGSGYVYRQSGSTRWNPTAEQLSLLKELYYRNGIRTPSADQIRQISARLSRYGKIEGKNVFYWFQNHKARERQKKRLSTVGCDPALIEMGNVASLEFGTESALESLSSGPSSELREAPTRKFYEKKTVGENSTIINPVEQNCTLSCGTSQEFQYAVDSRRVMKAMEEKQATDDEPDGNKWTESNRHVKTLPLFPLHNNEDQTLIKSDKEIYCLGSCEKKMDLSPLGHSGSQRASALDLCLSLGNESCGLHDN			34	20	14	22.7	14.3	237	2	0	2	9.1	13.3	15	1	0	1	2.1	6.3	16
